Data set [1] is described as follows: flow cytometry, surface anti-HA, 293T. To be noted: glycan changed form; control: untreated, same construct. (A flow cytometer gives signals particle by particle.)
The nature of data set [2]: virus release efficiency, p24 western blot, 293T. To be noted: glycan changed form; control: untreated, same construct. In general terms: In western blotting, separated proteins are transferred to a membrane and probed.
Data set [3] can be described thus: anti-HA western blot of 293T lysates. The following applies: glycan lost.
Data set [4] can be described thus: flow cytometry, surface anti-HA, 293T.
Data set [5] in a line: virus release efficiency, p24 western blot, 293T.
Data set [6] can be described thus: flow cytometry, surface anti-tetherin, HeLa. The following applies: glycan changed form; control: untreated HeLa.
The nature of data set [7]: immunofluorescence microscopy, anti-tetherin, HeLa. To be noted: glycan changed form; control: untreated HeLa.
Data set [8] can be described thus: virus release efficiency, HeLa endogenous tetherin. The following applies: glycan changed form; control: untreated HeLa.
[9] abbreviates: glycan lost, control: untreated WT tetherin.
[10] abbreviates: glycan changed form, control: untreated, same construct.
[11] abbreviates: glycan lost, control: wild type.

As to tetherin: kifunensine (N65A tetherin), in data set [1], the localisation_or_trafficking result is “decreases”. Besides, the “other: restriction of HIV-1 release” value in data set [2] was “no change”.

Turning to tetherin: kifunensine (N92A tetherin), the localisation_or_trafficking entry in data set [1] is on record as “decreases”. In addition, in data set [2], the “other: restriction of HIV-1 release” value is on record as “no change”.

B1: tetherin: tunicamycin (protein)
parent chain: MASTSYDYCRVPMEDGDKRCKLLLGIGILVLLIIVILGVPLIIFTIKANSEACRDGLRAVMECRNVTHLLQQELTEAQKGFQDVEAQAATCNHTVMALMASLDAEKAQGQKKVEELEGEITTLNHKLQDASAEVERLRRENQVLSVRIADKKYYPSSQDSSSAAAPQLLIVLLGLSALLQ
For B1, in data set [3] (control: untreated WT tetherin), the expression_or_secretion entry is given as “no change”. For the same molecule, the localisation_or_trafficking result in data set [4] (setting [9]) is reported as “decreases”. Further, the “other: restriction of HIV-1 release, fold_change” value in data set [5] (setting [9]) is “decreases”.

B2: tetherin: kifunensine (protein)
parent chain: MASTSYDYCRVPMEDGDKRCKLLLGIGILVLLIIVILGVPLIIFTIKANSEACRDGLRAVMECRNVTHLLQQELTEAQKGFQDVEAQAATCNHTVMALMASLDAEKAQGQKKVEELEGEITTLNHKLQDASAEVERLRRENQVLSVRIADKKYYPSSQDSSSAAAPQLLIVLLGLSALLQ
On to B2, for which the localisation_or_trafficking result in data set [6] and in data set [7] was “no change” each time. Moreover, the “other: restriction of HIV-1 release” value in data set [8] is “no change”.

B3: tetherin: kifunensine (WT tetherin) (protein)
parent chain: MASTSYDYCRVPMEDGDKRCKLLLGIGILVLLIIVILGVPLIIFTIKANSEACRDGLRAVMECRNVTHLLQQELTEAQKGFQDVEAQAATCNHTVMALMASLDAEKAQGQKKVEELEGEITTLNHKLQDASAEVERLRRENQVLSVRIADKKYYPSSQDSSSAAAPQLLIVLLGLSALLQ
Take B3: in data set [4] (setting [10]), the localisation_or_trafficking entry is “decreases”. In addition, the “other: restriction of HIV-1 release” value in data set [5] (setting [10]) is listed as “no change”.

B4: tetherin: N65,92A (protein)
parent chain: MASTSYDYCRVPMEDGDKRCKLLLGIGILVLLIIVILGVPLIIFTIKANSEACRDGLRAVMECRNVTHLLQQELTEAQKGFQDVEAQAATCNHTVMALMASLDAEKAQGQKKVEELEGEITTLNHKLQDASAEVERLRRENQVLSVRIADKKYYPSSQDSSSAAAPQLLIVLLGLSALLQ
As to B4, the expression_or_secretion result in data set [3] (control: wild type) is listed as “increases”. For the same molecule, in data set [4] (setting [11]), the localisation_or_trafficking entry is “decreases”. Also, in data set [5] (setting [11]), the “other: restriction of HIV-1 release” value is listed as “abolishes, there was a small (25%) decrease in VRE at 0.8 μg of input DNA”.

B5: tetherin: N92A (protein)
parent chain: MASTSYDYCRVPMEDGDKRCKLLLGIGILVLLIIVILGVPLIIFTIKANSEACRDGLRAVMECRNVTHLLQQELTEAQKGFQDVEAQAATCNHTVMALMASLDAEKAQGQKKVEELEGEITTLNHKLQDASAEVERLRRENQVLSVRIADKKYYPSSQDSSSAAAPQLLIVLLGLSALLQ
B5: in data set [3] (control: wild type), the expression_or_secretion entry is recorded as “no change”. Further, in data set [4] (setting [11]), the localisation_or_trafficking entry is given as “no change”. In data set [5] (setting [11]), the “other: restriction of HIV-1 release” value is on record as “no change”.

B6: tetherin: N65A (protein)
parent chain: MASTSYDYCRVPMEDGDKRCKLLLGIGILVLLIIVILGVPLIIFTIKANSEACRDGLRAVMECRNVTHLLQQELTEAQKGFQDVEAQAATCNHTVMALMASLDAEKAQGQKKVEELEGEITTLNHKLQDASAEVERLRRENQVLSVRIADKKYYPSSQDSSSAAAPQLLIVLLGLSALLQ
On to B6, for which the expression_or_secretion result in data set [3] (control: wild type) is “no change”. For the same molecule, the localisation_or_trafficking entry in data set [4] (setting [11]) is recorded as “no change”. In addition, the “other: restriction of HIV-1 release” value in data set [5] (setting [11]) is given as “no change”.

Values taken from article PMC5795439.
